Consider 56 variants from the RNAGym collection of RNA variant scans (doi:10.7554/elife.90254).

The labels stand for the following.
B1: LINE1-mini (parent)
chain: GGCAGAGCUCAACACAGCGUGGCAAAGUGGCUGUGGCUAGACUGCC

In the data set the parent is B1. Briefly: self-cleavage, relative activity (ratio to wild type); higher = more cleavage; in vitro, sequencing; the parent is a self-cleaving ribozyme.
As for GGAAGAGCUCAACGCAGCGUGGCAAAGUGGCUGUGGCUAGACUGCC, the self-cleavage is 0.61. As for GGAAGAGCUCAACCCAGCGUGGCAAAGUGGCUGUGGCUAGACUGCC, the self-cleavage worked out at 0.16.

Consider GGAAGAGCUCAACUCAGCGUGGCAAAGUGGCUGUGGCUAGACUGCC, for which the self-cleavage worked out at 0.27. As for GGAAGAGCUCAACACAGCGUGUCAAAGUGGCUGUGGCUAGACUGCC, the figure is 0.71; as for GGAAGAGCUCAACACAGCGUGCCAAAGUGGCUGUGGCUAGACUGCC, 0.58. The value for GGAAGAGCUCAACACAGCGUGACAAAGUGGCUGUGGCUAGACUGCC was 0.52; that for GUCAGAGCUCAACACAGCGUGGCAAAGUGGCUGGGGCUAGACUGCC was 0.03. With GUCAGAGCUCAACACAGCGUGGCAAAGUGGCUGAGGCUAGACUGCC, the self-cleavage was 0.04. The value for GUCAGAGCUCAACACAGCGUGGCAAAGUGGCUGCGGCUAGACUGCC was 0.04; that for GGAAUAGCUCAACACAGCGUGGCAAAGUGGCUGUGGCUAGACUGCC was 0.28. In the case of GGAACAGCUCAACACAGCGUGGCAAAGUGGCUGUGGCUAGACUGCC, the self-cleavage turned out to be 0.31. For GGAAAAGCUCAACACAGCGUGGCAAAGUGGCUGUGGCUAGACUGCC, the self-cleavage amounted to 0.5. The value for GGAAGAGCUCAACACAGCGUGGCAAAGUGGCUGUGGGUAGACUGCC was 0.28; that for GGAAGAGCUCAACACAGCGUGGCAAAGUGGCUGUGGAUAGACUGCC was 0.35; that for GGAAGAGCUCAACACAGCGUGGCAAAGUGGCUGUGGUUAGACUGCC was 0.33. With GUCAGAGCACAACACAGCGUGGCAAAGUGGCUGUGGCUAGACUGCC, the self-cleavage turned out to be 0.06. For the variant GUCAGAGCGCAACACAGCGUGGCAAAGUGGCUGUGGCUAGACUGCC, the self-cleavage was determined as 0.06. The value for GUCAGAGCCCAACACAGCGUGGCAAAGUGGCUGUGGCUAGACUGCC was 0.01.

GGAAGAGAUCAACACAGCGUGGCAAAGUGGCUGUGGCUAGACUGCC: the self-cleavage amounted to 0.85. As for GGAAGAGGUCAACACAGCGUGGCAAAGUGGCUGUGGCUAGACUGCC, the figure is 0.3; as for GGAAGAGUUCAACACAGCGUGGCAAAGUGGCUGUGGCUAGACUGCC, 0.69; as for GGAAGAGCUCAAAACAGCGUGGCAAAGUGGCUGUGGCUAGACUGCC, 0.25. As for GGAAGAGCUCAAUACAGCGUGGCAAAGUGGCUGUGGCUAGACUGCC, the figure is 1.71; as for GGAAGAGCUCAAGACAGCGUGGCAAAGUGGCUGUGGCUAGACUGCC, 0.54. As for GGAAGAGCUCAACAAAGCGUGGCAAAGUGGCUGUGGCUAGACUGCC, the figure is 0.24; as for GGAAGAGCUCAACAGAGCGUGGCAAAGUGGCUGUGGCUAGACUGCC, 0.09; as for GGAAGAGCUCAACAUAGCGUGGCAAAGUGGCUGUGGCUAGACUGCC, 0.41. Take GGAAGAGCUCAACACAGCGUGGAAAAGUGGCUGUGGCUAGACUGCC: the self-cleavage is 0.61. The value for GGAAGAGCUCAACACAGCGUGGGAAAGUGGCUGUGGCUAGACUGCC was 0.45; that for GGAAGAGCUCAACACAGCGUGGUAAAGUGGCUGUGGCUAGACUGCC was 0.71; that for GUCAGAGCUCAACACAGCGUGGCAAAGUGGCUGUGGCUAGACAGCC was 0.04.

As to GUCAGAGCUCAACACAGCGUGGCAAAGUGGCUGUGGCUAGACCGCC, the self-cleavage turned out to be 0.06. In the case of GUCAGAGCUCAACACAGCGUGGCAAAGUGGCUGUGGCUAGACGGCC, the self-cleavage was 0.02. As for GGAAGAGCUUAACACAGCGUGGCAAAGUGGCUGUGGCUAGACUGCC, the figure is 0.19; as for GGAAGAGCUGAACACAGCGUGGCAAAGUGGCUGUGGCUAGACUGCC, 0.05.

With GGAAGAGCUAAACACAGCGUGGCAAAGUGGCUGUGGCUAGACUGCC, the self-cleavage is 0.07. As to GGAAGAGCUCAACACAGCGUGGCAAAGUGGUUGUGGCUAGACUGCC, the self-cleavage came out at 0.11. As for GGAAGAGCUCAACACAGCGUGGCAAAGUGGGUGUGGCUAGACUGCC, the self-cleavage is 0.13. As for GGAAGAGCUCAACACAGCGUGGCAAAGUGGAUGUGGCUAGACUGCC, the figure is 0.16. The value for GUCAGAGCUCAACACAGCGUGGCAAAGUGGCUGUGGCCAGACUGCC was 0.05. As for GUCAGAGCUCAACACAGCGUGGCAAAGUGGCUGUGGCGAGACUGCC, the figure is 0.02; as for GUCAGAGCUCAACACAGCGUGGCAAAGUGGCUGUGGCAAGACUGCC, 0.05; as for GGAAGAGCUCAACACAGCGUGGCAAAGUGGCUGUGGCUAGACUGAC, 0.48.

Consider GGAAGAGCUCAACACAGCGUGGCAAAGUGGCUGUGGCUAGACUGGC, for which the self-cleavage stood at 0.42. As for GGAAGAGCUCAACACAGCGUGGCAAAGUGGCUGUGGCUAGACUGUC, the figure is 0.53; as for GUCAGAGCUCAACACAGCGUGGCAAAGUGGCUGUGGCUAGACUUCC, 0.06; as for GGAAGAGCUCAUCACAGCGUGGCAAAGUGGCUGUGGCUAGACUGCC, 0.57. The value for GGAAGAGCUCAGCACAGCGUGGCAAAGUGGCUGUGGCUAGACUGCC was 0.12; that for GGAAGAGCUCACCACAGCGUGGCAAAGUGGCUGUGGCUAGACUGCC was 0.07. The value for GGAAGAGCUCAACACAACGUGGCAAAGUGGCUGUGGCUAGACUGCC was 0.16; that for GGAAGAGCUCAACACACCGUGGCAAAGUGGCUGUGGCUAGACUGCC was 0.31; that for GGAAGAGCUCAACACAUCGUGGCAAAGUGGCUGUGGCUAGACUGCC was 0.2.

Consider GGAAGAGCUCAACACAGCGUGGCAAUGUGGCUGUGGCUAGACUGCC, for which the self-cleavage stood at 0.49. The value for GGAAGAGCUCAACACAGCGUGGCAACGUGGCUGUGGCUAGACUGCC was 0.44; that for GGAAGAGCUCAACACAGCGUGGCAAGGUGGCUGUGGCUAGACUGCC was 0.67; that for GGAAGAGCUCAACACAGCGUGGCAAAGUGGCUGUGGCUAGACUGCC was 0.58.
